Settings in all cases: both partners purified
In assay [1] the target is T1, tag free LigB12 (amino acids 1,047–1,119 in LigB) (L. interrogans serovar Pomona).
T1 construct: LigB, 12th Ig-like domain, amino acids 1,047–1,119 in LigB; from pET28-SUMO; also called wild-type LigB12; LigB12 WT; source: E. coli Rosetta, purified (Ni-NTA, Ulp-1 digestion, second Ni-NTA, size exclusion)
The assay is described as follows: SPR; Biacore 3000; tag free LigB12 immobilised on CM5 (about 1,000 RU); HTE truncates 0 to 5 μM injected in PBS at 30 μL/min, 25°C; 1:1 Langmuir model. A general note: Surface plasmon resonance follows binding to a sensor surface in real time, without labels.

Assay [2] has as its target T2, GST tagged LigB4 (amino acids 307–403 in LigB) (L. interrogans serovar Pomona).
T2 construct: Leptospira immunoglobulin-like protein B (LigB), 4th Ig-like domain, amino acids 307–403 in LigB; constructed into pGEX-6P-1 and pGEX-4T-2; also called GST-LigB4; 4th domain of LigB; source: E. coli Rosetta, purified (glutathione agarose)
The assay is described as follows: ELISA; HTE17-20, HTE20, HTE20N, HTE20C or BSA coated (1 μM/well); GST tagged LigB4 or LigB12 titrated 0 to 10 μM, 1 h at 37°C; HRP anti-GST; KD from a saturation fit of OD630. (An ELISA detects its analyte on a solid surface through an enzyme-linked reagent.)

In assay [3] the target is T3, GST tagged LigB12 (amino acids 1,047–1,119 in LigB) (L. interrogans serovar Pomona).
T3 construct: LigB, 12th Ig-like domain, amino acids 1,047–1,119 in LigB; constructed into pGEX-6P-1 and pGEX-4T-2; also called GST-LigB12; 12th domain of LigB; source: E. coli Rosetta, purified (glutathione agarose)
The description is as above.

This is an account of results in article PMC5422739, “Leptospira Immunoglobulin-Like Protein B Interacts with the 20th Exon of Human Tropoelastin Contributing to Leptospiral Adhesion to Human Lung Cells” (Frontiers in Cellular and Infection Microbiology, 2017).

B1: HTE17-20 (17th to 20th exon of human tropoelastin) (domain or fragment)
chain: GVGTPAAAAAAAAAAKAAKYGAAAGLVPGGPGFGPGVVGVPGAGVPGVGVPGAGIPVVPGAGIPGAAVPGVVSPEAAAKAAAKAAKYGARPGVGVGGIPTYGVGAGGFPGFGVGVGGIPGVAGVPGVGGVPGVGGVPGVGIS
Take B1: the Kd – broadly, the equilibrium constant for the complex coming apart – in assay [1] came out at 850 nM; in assay [2] it was 780 nM; in assay [3], 780 nM. In addition, the koff (commonly a measure of how fast the partners let go of each other) in assay [1] was determined as 0.0011 s⁻¹. Also, the kon (usually a measure of how fast the partners come together) in assay [1] worked out at 1300 M⁻¹ s⁻¹.
